Target: T1, MrpR (Bacillus subtilis prophage SPβ, UniProt O34558 1-325)
T1 sequence: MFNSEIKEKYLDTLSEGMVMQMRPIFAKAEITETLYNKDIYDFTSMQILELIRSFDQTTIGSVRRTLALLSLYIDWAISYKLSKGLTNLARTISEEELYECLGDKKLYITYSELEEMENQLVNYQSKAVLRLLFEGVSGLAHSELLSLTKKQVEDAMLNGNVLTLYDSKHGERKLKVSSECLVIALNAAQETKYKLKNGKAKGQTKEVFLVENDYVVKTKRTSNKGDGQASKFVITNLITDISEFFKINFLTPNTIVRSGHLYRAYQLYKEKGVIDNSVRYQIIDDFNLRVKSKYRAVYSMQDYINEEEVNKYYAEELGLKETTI
Experiment: ITC; ITC: 20 mM HEPES-Na pH 7.5, 200 mM NaCl, 20 mM KCl, 25 C, 20 uM DNA in cell, protein in syringe, one set of sites; EMSA: same buffer plus 50 ug/ml herring sperm DNA, 50 nM DNA, RT 15 min, 6% native PAGE 0.5x TBE
Settings: protein: recombinant; tags: C-terminal His6; blunt

B1: aimR promoter ITC duplex (LC292/LC293) (dsDNA)
DNA 1: GAATTTTAAAGAGATTACAAATACAAAAAATATGTATAAAATAATTGACTCGTAATG
DNA 2: CATTACGAGTCAATTATTTTATACATATTTTTTGTATTTGTAATCTCTTTAAAATTC
B1 gave a Kd of 238 ± 80 nM.

Source: PMC10516654, “Structural and functional characterization of MrpR, the master repressor of the Bacillus subtilis prophage SPβ”
